Measured values published in patent US20260139048A1 (NANJING LEGEND BIOTECH, published 2026).
Like-named read-outs stand apart in the source and are kept apart here.

Experiments:
[1] = target: T1, His-tagged cynomolgus TIGIT (cynomolgus, UniProt A0A7N9I9V4 89-209); assay: SPR (Biacore T200), antibody captured, His-tagged TIGIT analyte
T1 construct: SPR analyte; also called cynomolgus TIGIT protein; not shown: His tag

[2] = target: T2, His-tagged human TIGIT (human, UniProt Q495A1 22-141); assay: as above
T2 construct: SPR analyte; also called human TIGIT protein; not shown: His tag
T2 sequence: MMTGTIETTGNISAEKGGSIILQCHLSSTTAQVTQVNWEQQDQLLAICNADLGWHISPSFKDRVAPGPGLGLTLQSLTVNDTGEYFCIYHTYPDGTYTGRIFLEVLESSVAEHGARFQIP

[3] = target: T2, His-tagged human TIGIT; assay: SPR experiment 4, IgG from HEK293 supernatant captured
[4] = target: T2, His-tagged human TIGIT; assay: SPR experiment 1, IgG from HEK293 supernatant captured
[5] = target: T3, human TIGIT expressed on CHO-K1 cells (human, UniProt Q495A1 22-244); assay: flow cytometry on CHO-K1 cells expressing human TIGIT
T3 construct: whole, on cells; also called human TIGIT-CHO-K1 cells; human TIGIT over-expressing cell line
T3 sequence (looked up): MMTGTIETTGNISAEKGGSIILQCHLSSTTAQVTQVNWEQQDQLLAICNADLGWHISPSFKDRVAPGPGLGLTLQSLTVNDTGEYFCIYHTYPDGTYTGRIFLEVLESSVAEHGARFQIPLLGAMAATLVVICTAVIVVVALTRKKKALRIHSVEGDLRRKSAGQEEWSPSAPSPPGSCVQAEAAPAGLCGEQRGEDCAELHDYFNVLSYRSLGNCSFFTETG

[6] = target: T4, TIGIT on TIGIT-over expressing NFAT-Luc/Jurkat effector cells (GenScript reporter cell line) (UniProt Q495A1 22-244, limits assumed); assay: cell-based or functional assay
T4 sequence (looked up): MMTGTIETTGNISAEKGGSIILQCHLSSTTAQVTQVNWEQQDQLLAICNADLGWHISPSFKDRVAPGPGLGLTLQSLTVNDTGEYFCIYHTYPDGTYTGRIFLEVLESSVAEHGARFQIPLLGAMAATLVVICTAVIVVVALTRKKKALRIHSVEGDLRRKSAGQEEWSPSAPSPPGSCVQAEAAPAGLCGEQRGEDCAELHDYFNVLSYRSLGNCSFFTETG

[7] = target: T5, cynomolgus TIGIT expressed on CHO-K1 cells (cynomolgus, UniProt A0A7N9I9V4 89-312); assay: flow cytometry on CHO-K1 cells expressing cynomolgus TIGIT
T5 construct: whole, on cells; also called cynomolgus TIGIT over-expressing cell line

[8] = target: T3, human TIGIT expressed on CHO-K1 cells; assay: flow cytometry competition: biotinylated CD155-Fc on human TIGIT-CHO-K1 cells
[9] = target: T5, cynomolgus TIGIT expressed on CHO-K1 …; assay: flow cytometry on CHO-K1 cells expressing cynomolgus TIGIT; remark: listed apart in the source
[10] = target: T3, human TIGIT expressed on CHO-K1 cells; assay: flow cytometry competition: biotinylated CD155-Fc on human TIGIT-CHO-K1 cells; remark: listed apart in the source
[11] = target: T3, human TIGIT expressed on CHO-K1 cells; assay: flow cytometry on CHO-K1 cells expressing human TIGIT; remark: listed apart in the source
[12] = target: T1, His-tagged cynomolgus TIGIT; assay: SPR (Biacore T200), antibody captured, His-tagged TIGIT analyte; remark: listed apart in the source
[13] = target: T2, His-tagged human TIGIT; assay: as above; remark: listed apart in the source
[14] = target: T4, TIGIT on TIGIT-over expressing …; assay: cell-based or functional assay; remark: listed apart in the source
[15] = target: T2, His-tagged human TIGIT; assay: SPR experiment 2, IgG from HEK293 supernatant captured
[16] = target: T2, His-tagged human TIGIT; assay: SPR experiment 1, IgG from HEK293 supernatant captured; remark: listed apart in the source
[17] = target: T2, His-tagged human TIGIT; assay: SPR, IgG from HEK293 supernatant; against 19VH + 19VL
[18] = target: T2, His-tagged human TIGIT; assay: SPR experiment 2, IgG from HEK293 supernatant captured; remark: listed apart in the source

T5 sequence (A0A7N9I9V4 entry or part of it): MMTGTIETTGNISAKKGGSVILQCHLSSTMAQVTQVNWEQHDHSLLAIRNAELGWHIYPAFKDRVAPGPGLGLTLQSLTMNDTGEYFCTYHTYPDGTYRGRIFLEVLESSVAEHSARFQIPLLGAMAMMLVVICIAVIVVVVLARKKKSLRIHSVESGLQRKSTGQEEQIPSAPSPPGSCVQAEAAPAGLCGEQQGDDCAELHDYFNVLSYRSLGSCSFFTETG
T1 sequence (A0A7N9I9V4 entry or part of it): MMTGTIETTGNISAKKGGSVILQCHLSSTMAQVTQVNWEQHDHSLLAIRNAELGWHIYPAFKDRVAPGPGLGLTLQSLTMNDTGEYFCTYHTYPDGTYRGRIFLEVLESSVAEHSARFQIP

B1: TIGIT-3 chimeric antibody (antibody, human IgG1, kappa, V domains shown)
VH: EVQLVESGGGLVQPGGSLKLSCAASGFTFSSYGMSWVRQTPDKRLELVATIKSDGGSTNLPDSVKGRFTISRDNAKNTLHLQMSSLKSEDTAMYYCVRGYFDYWGQGTSVTVSS
VL: DIVMTQSHKFMSTSVGDRVSITCKASQDVKTAVAWYQQKPGQSPKLLIYWSSTRHTGVPDRFTGSRSLTDHTLTISSVQAEDLALYYCQQYYSTPYTFGGGTKLELKR
notes: also called 3VH + 3VL
For B1, the Kd [1] was 1800 pM, the koff [1] was 0.0002 s⁻¹ and the kon [1] was 110000 M⁻¹ s⁻¹. For the same binder, the Kd [2] was 81 pM, the koff [2] was 5.9e-05 s⁻¹ and the kon [2] was 730000 M⁻¹ s⁻¹. For the same binder, the Kd [3] was 280 pM, the koff [3] was 0.00017 s⁻¹ and the kon [3] was 610000 M⁻¹ s⁻¹. It also gave a Kd [4] of 240 pM, a koff [4] of 0.00012 s⁻¹ and a kon [4] of 510000 M⁻¹ s⁻¹. For the same binder, the EC50 [5] was 346 pM, the “Bottom (RLU)” value [6] was 55800 RLU and the “EC50” value [6] was 2100 pM. The “Top (RLU)” value [6] was 148000 RLU, the EC50 [7] was 1420 pM and the IC50 [8] was 558 pM. The EC50 [9] was 2000 pM, the IC50 [10] was 380 pM and the EC50 [11] was 530 pM. For the same binder, the Kd [12] was 450 pM, the koff [12] was 5.3e-05 s⁻¹ and the kon [12] was 120000 M⁻¹ s⁻¹. The Kd [13] was 75 pM, the koff [13] was 4.7e-05 s⁻¹ and the kon [13] was 630000 M⁻¹ s⁻¹. For the same binder, the “Bottom (RLU)” value [14] was 11200 RLU, the “EC50” value [14] was 2770 pM and the “Top (RLU)” value [14] was 42800 RLU.

B2: humanized TIGIT-19 antibody 19VH4 + 19VL1 (antibody, V domains shown)
VH: QVQLVQSGAEVKKPGASVKVSCKASGYAFSRYSMYWVRQAPGQGLEWIAFIDPYNGGSTYNQRFRGKATLTVDTSISTAYMELSRLRSDDTAVYYCARGGDYGWYLGVWGQGTLVTVSS
VL: DIQMTQSPSSLSASVGDRVTITCRPSENIYTYLSWYQQKPGKAPKLLIYNAKTLPEGVPSRFSGSGSGTDFTLTISSLQPEDFATYYCQHHYGNPLTFGQGTKVEIK
notes: Full-length IgG, tested as HEK293 supernatant
Binder B2 has a Kd [15] of 28 pM, a koff [15] of 3.3e-05 s⁻¹ and a kon [15] of 1.2e+06 M⁻¹ s⁻¹. The Kd [16] was 19.6 pM, the koff [16] was 2.51e-05 s⁻¹ and the kon [16] was 1.28e+06 M⁻¹ s⁻¹. For the same binder, the “fold improvement of binding affinity” value [17] was ~4 fold.

B3: huTIGIT-3-1 (antibody, human IgG1, kappa, V domains shown)
VH: EVQLVESGGGLVQPGGSLRLSCAASGFTFSSYGMSWVRQAPGKGLELVATIKSSGGSTNLADSVKGRFTISRDNSKNTLYLQMNSLRAEDTAVYYCVRGYFDYWGQGTTVTVSS
VL: DIQMTQSPSSLSASVGDRVTITCRASQDIKTALAWYQQKPGKSPKLLIYWASTRQSGVPSRFSGSGSGTDFTLTISSLQPEDVATYYCQQYYSTPYTFGGGTKVEIKR
notes: Humanized IgG; also called 3VH3.M4 + 3VL4.M6
In the case of B3, the Kd [3] is reported as 560 pM, the koff [3] is reported as 0.00046 s⁻¹ and the kon [3] is reported as 820000 M⁻¹ s⁻¹. For the same binder, the EC50 [5] was 511 pM, the “Bottom (RLU)” value [6] was 54400 RLU and the “EC50” value [6] was 4920 pM. For the same binder, the “Top (RLU)” value [6] was 152000 RLU, the EC50 [7] was 1720 pM and the IC50 [8] was 502 pM. For the same binder, the Kd [12] was 18000 pM, the koff [12] was 0.0022 s⁻¹ and the kon [12] was 120000 M⁻¹ s⁻¹. It also gave a Kd [13] of 540 pM, a koff [13] of 0.00031 s⁻¹ and a kon [13] of 570000 M⁻¹ s⁻¹.

B4: reshaped TIGIT-3 antibody 3VH3 + 3VL (antibody, V domains shown)
VH: EVQLVESGGGLVQPGGSLRLSCAASGFTFSSYGMSWVRQAPGKGLELVATIKSDGGSTNLPDSVKGRFTISRDNSKNTLYLQMNSLRAEDTAVYYCVRGYFDYWGQGTTVTVSS
VL: DIVMTQSHKFMSTSVGDRVSITCKASQDVKTAVAWYQQKPGQSPKLLIYWSSTRHTGVPDRFTGSRSLTDHTLTISSVQAEDLALYYCQQYYSTPYTFGGGTKLELK
notes: as for B2
Binder B4 has a Kd [4] of 250 pM, a koff [4] of 0.00015 s⁻¹ and a kon [4] of 580000 M⁻¹ s⁻¹. For the same binder, the Kd [18] was 480 pM, the koff [18] was 0.00025 s⁻¹ and the kon [18] was 520000 M⁻¹ s⁻¹.
